Source: patent publication EP4568683A2 (dated 2025)

Key:
[1] = target: T1, recombinant human PSMA protein (human, UniProt Q04609 44-750); experiment: ELISA, plates coated with 1 ug/mL recombinant human PSMA
T1 construct: On Blue native PAGE the protein appeared to be a mixture of dimer and monomer; also called recombinant human PSMA (Acro Biosciences / Acro Biosystems; printed 'Aero')

[2] = target: T2, human PSMA expressed on prostate cancer cell lines (22Rv1, C4-2B, PC3-PSMA) (human, UniProt Q04609 1-750); experiment: flow cytometry on PSMA-expressing 22Rv1 cells, PE anti-human IgG-Fc secondary, MFI
T2 construct: Endogenous PSMA on 22Rv1 and C4-2B cells; PC3 cells were engineered to express PSMA; also called prostate specific membrane antigen; FOLH1
T2 sequence (Q04609 whole entry): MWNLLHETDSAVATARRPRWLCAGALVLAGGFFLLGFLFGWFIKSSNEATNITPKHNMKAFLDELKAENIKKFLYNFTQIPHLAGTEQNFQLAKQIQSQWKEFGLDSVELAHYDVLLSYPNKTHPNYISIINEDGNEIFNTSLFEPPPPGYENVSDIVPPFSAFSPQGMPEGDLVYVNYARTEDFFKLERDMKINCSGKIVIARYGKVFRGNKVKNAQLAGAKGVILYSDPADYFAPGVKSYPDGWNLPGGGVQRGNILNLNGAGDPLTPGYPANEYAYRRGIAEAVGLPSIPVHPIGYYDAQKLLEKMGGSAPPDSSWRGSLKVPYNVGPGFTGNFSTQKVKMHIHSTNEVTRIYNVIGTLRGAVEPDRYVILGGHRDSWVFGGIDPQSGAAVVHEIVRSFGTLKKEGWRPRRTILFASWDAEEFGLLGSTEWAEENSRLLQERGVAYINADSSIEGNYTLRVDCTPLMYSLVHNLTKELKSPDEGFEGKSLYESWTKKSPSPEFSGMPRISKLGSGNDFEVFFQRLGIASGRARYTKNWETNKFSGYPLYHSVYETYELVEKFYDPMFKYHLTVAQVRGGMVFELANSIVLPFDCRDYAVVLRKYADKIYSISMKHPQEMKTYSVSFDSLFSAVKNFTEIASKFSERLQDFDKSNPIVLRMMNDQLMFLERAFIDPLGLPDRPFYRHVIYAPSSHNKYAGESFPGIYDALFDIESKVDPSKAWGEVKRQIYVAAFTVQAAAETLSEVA

T1 sequence (Q04609 44-750 limits assumed): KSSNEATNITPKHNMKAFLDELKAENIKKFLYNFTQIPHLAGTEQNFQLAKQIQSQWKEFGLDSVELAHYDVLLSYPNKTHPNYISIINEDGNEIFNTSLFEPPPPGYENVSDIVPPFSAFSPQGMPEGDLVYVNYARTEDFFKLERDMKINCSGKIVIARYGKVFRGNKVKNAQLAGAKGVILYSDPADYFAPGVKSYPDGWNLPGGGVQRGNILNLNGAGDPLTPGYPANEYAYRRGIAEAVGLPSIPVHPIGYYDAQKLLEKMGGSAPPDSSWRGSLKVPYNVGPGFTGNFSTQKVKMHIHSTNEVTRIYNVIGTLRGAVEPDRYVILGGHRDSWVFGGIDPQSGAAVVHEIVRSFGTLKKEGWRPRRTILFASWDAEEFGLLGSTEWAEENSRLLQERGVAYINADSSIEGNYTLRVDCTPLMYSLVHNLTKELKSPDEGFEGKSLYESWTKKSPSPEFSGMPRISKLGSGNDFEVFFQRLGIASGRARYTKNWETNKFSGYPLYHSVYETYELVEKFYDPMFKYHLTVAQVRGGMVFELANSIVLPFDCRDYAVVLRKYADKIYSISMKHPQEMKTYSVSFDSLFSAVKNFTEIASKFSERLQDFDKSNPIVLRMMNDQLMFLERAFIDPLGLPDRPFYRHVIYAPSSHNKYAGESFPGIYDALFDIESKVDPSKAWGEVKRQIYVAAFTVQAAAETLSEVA

binding result [1]: binds
binding result [2]: binds
B1: benchmark antibody J591 (antibody, V domains shown)
VH: EVQLQQSGPELKKPGTSVRISCKTSGYTFTEYTIHWVKQSHGKSLEWIGNINPNNGGTTYNQKFEDKATLTVDKSSSTAYMELRSLTSEDSAVYYCAAGWNFDYWGQGTTLTVSS
VL: DIVMTQSHKFMSTSVGDRVSIICKASQDVGTAVDWYQQKPGQSPKLLIYWASTRHTGVPDRFTGSGSGTDFTLTITNVQSEDLADYFCQQYNSYPLTFGAGTMLDLK
notes: It was detected with anti-human IgG Fc secondary antibody; also called Benchmark (J591)
